Laboratory results published in article PMC10786891, “Massively parallel profiling of RNA-targeting CRISPR-Cas13d”.
Positions count from the first letter of the chain named. In names and notes the source's numbering stands.

T1: EsCas13d, nuclease-dead (Eubacterium siraeum, UniProt B0MS50, R295A;H300A;R849A;H854A)
T1 sequence: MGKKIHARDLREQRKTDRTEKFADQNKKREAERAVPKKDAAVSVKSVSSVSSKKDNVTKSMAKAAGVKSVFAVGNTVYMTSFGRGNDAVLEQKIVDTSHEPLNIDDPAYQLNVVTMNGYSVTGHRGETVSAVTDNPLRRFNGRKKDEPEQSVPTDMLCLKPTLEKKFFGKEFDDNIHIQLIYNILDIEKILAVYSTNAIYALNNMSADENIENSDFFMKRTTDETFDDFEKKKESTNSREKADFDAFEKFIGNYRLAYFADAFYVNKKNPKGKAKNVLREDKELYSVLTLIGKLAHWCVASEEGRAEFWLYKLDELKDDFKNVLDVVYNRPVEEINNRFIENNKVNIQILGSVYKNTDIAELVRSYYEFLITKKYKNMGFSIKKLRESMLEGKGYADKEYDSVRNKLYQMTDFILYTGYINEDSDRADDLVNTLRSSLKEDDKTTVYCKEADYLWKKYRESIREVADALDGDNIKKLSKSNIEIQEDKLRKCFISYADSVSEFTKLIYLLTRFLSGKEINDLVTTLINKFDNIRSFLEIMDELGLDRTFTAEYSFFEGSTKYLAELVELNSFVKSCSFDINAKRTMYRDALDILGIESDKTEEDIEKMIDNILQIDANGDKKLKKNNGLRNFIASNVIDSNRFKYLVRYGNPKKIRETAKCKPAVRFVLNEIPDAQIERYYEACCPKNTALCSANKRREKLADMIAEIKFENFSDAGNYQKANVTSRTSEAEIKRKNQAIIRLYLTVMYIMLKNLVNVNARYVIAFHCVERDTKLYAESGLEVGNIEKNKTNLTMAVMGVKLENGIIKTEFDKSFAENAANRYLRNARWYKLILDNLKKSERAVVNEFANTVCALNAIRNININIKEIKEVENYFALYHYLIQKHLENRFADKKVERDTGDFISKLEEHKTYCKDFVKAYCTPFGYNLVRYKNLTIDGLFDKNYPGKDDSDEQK

B1: target 1 C6A,G12A (mixed)
RNA 1: CACCCGUGCAAAAAUGCAGGGGUCUAAAACUGAGCGGAUAACCUCUCUAUGG
RNA 2: GGGAAUGGAUCCACAUCUACGAAUUCGUACCAUAGAGAGAUUAUCAGCUCACCGAGAUCGGAAGAGCACACGU
B2: target 1 insG 3' of 11,insA 3' of 10 (mixed)
RNA 1: B1 RNA 1
RNA 2: GGGAAUGGAUCCACAUCUACGAAUUCGUACCAUAGAGAGGUGUAAUCCGCUCACCGAGAUCGGAAGAGCACACGU
B3: target 1 C7G,G15A (mixed)
RNA 1: B1 RNA 1
RNA 2: B1 RNA 2 with G37A, A40G, C45G, A46C
B4: target 1 insA 3' of 22,insC 3' of 1 (mixed)
RNA 1: B1 RNA 1
RNA 2: GGGAAUGGAUCCACAUCUACGAAUUCGUACACAUAGAGAGGUUAUCCGCUCACCCGAGAUCGGAAGAGCACACGU
B5: target 1 insC 3' of 13,insG 3' of 10 (mixed)
RNA 1: B1 RNA 1
RNA 2: B2 RNA 2 with G40C, U41G, G42U, A44G
B6: target 1 insA 3' of 4,insA 3' of 2 (mixed)
RNA 1: B1 RNA 1
RNA 2: GGGAAUGGAUCCACAUCUACGAAUUCGUACCAUAGAGAGGUUAUCCGCAUCAACCGAGAUCGGAAGAGCACACGU
B7: target 1 U3G,C21A (mixed)
RNA 1: B1 RNA 1
RNA 2: B1 RNA 2 with C31A, A40G, A46C, U49G
B8: target 1 A14G,A16C (mixed)
RNA 1: B1 RNA 1
RNA 2: B1 RNA 2 with A36C, A38G, A40G, A46C
B9: target 1 U8C,G17C (mixed)
RNA 1: B1 RNA 1
RNA 2: B1 RNA 2 with G35C, A40G, U44C, A46C
B10: target 1 C7G,A9U (mixed)
RNA 1: B1 RNA 1
RNA 2: B1 RNA 2 with A40G, A43U, C45G, A46C
B11: target 1 C6G,G12C (mixed)
RNA 1: B1 RNA 1
RNA 2: B1 RNA 2 with A40C, A46G
B12: target 1 U10G,G12A (mixed)
RNA 1: B1 RNA 1
RNA 2: B1 RNA 2 with U42G, A46C
B13: target 1 C7G,G17U (mixed)
RNA 1: B1 RNA 1
RNA 2: B1 RNA 2 with G35U, A40G, C45G, A46C
B14: target 1 complement block 6-10 (mixed)
RNA 1: B1 RNA 1
RNA 2: B1 RNA 2 with A40G, U42A, A43U, U44A, C45G, A46G
B15: target 1 insC 3' of 14,insU 3' of 4 (mixed)
RNA 1: B1 RNA 1
RNA 2: B2 RNA 2 with G39C, U41G, G42U, A45U, U46C, C48G, G49C, C50U
B16: target 1 insA 3' of 15,insC 3' of 1 (mixed)
RNA 1: B1 RNA 1
RNA 2: B4 RNA 2 with A31C, C32A, A33U, U34A, A35G, G36A, A37G, G38A
B17: target 1 del7,del9 (mixed)
RNA 1: B1 RNA 1
RNA 2: GGGAAUGGAUCCACAUCUACGAAUUCGUACCAUAGAGAGGUUUCGCUCACCGAGAUCGGAAGAGCACACGU
B18: target 1 insA 3' of 4,insU 3' of 1 (mixed)
RNA 1: B1 RNA 1
RNA 2: B6 RNA 2 with A53U
B19: target 1 insA 3' of 15,insG 3' of 1 (mixed)
RNA 1: B1 RNA 1
RNA 2: B4 RNA 2 with A31C, C32A, A33U, U34A, A35G, G36A, A37G, G38A, C53G
B20: target 1 insC 3' of 22,insG 3' of 14 (mixed)
RNA 1: B1 RNA 1
RNA 2: GGGAAUGGAUCCACAUCUACGAAUUCGUACCCAUAGAGAGGGUUAUCCGCUCACCGAGAUCGGAAGAGCACACGU
B21: target 1 insA 3' of 17,insU 3' of 4 (mixed)
RNA 1: B1 RNA 1
RNA 2: B4 RNA 2 with A31C, C32A, A33U, U34A, A35G, G36A, C51U, A52C, C53A
B22: target 1 insA 3' of 15,insU 3' of 1 (mixed)
RNA 1: B1 RNA 1
RNA 2: B4 RNA 2 with A31C, C32A, A33U, U34A, A35G, G36A, A37G, G38A, C53U
B23: target 1 C7U,G12C (mixed)
RNA 1: B1 RNA 1
RNA 2: B1 RNA 2 with A40C, C45U, A46C
B24: target 1 insU 3' of 15,insC 3' of 13 (mixed)
RNA 1: B1 RNA 1
RNA 2: B2 RNA 2 with A38U, G39A, U41C, A44U
B25: target 1 insU 3' of 21 (mixed)
RNA 1: B1 RNA 1
RNA 2: GGGAAUGGAUCCACAUCUACGAAUUCGUACCUAUAGAGAGGUUAUCCGCUCACCGAGAUCGGAAGAGCACACGU
B26: target 1 insA 3' of 22,insA 3' of 2 (mixed)
RNA 1: B1 RNA 1
RNA 2: B4 RNA 2 with C53A
B27: target 1 insG 3' of 6,insA 3' of 6 (mixed)
RNA 1: B1 RNA 1
RNA 2: B6 RNA 2 with C48A, A49G, U50C, C51U, A52C
B28: target 1 insA 3' of 4,insC 3' of 1 (mixed)
RNA 1: B1 RNA 1
RNA 2: B6 RNA 2 with A53C
B29: target 1 U11A,G12A (mixed)
RNA 1: B1 RNA 1
RNA 2: B1 RNA 2 with U41A, A46C
B30: target 1 insG 3' of 6,insA 3' of 4 (mixed)
RNA 1: B1 RNA 1
RNA 2: B6 RNA 2 with C48G, A49C, U50A, C51U, A52C
B31: target 1 insA 3' of 15,insA 3' of 2 (mixed)
RNA 1: B1 RNA 1
RNA 2: B6 RNA 2 with G39A, U41G, A43U, U44A, C45U, G47C, C48G, A49C
B32: target 1 C6G,A16G (mixed)
RNA 1: B1 RNA 1
RNA 2: B1 RNA 2 with A36G, A40G, A46G
B33: target 1 insC 3' of 15,insG 3' of 9 (mixed)
RNA 1: B1 RNA 1
RNA 2: B2 RNA 2 with A38C, G39A, U41G, G42U, A45G
B34: target 1 insG 3' of 22,insC 3' of 18 (mixed)
RNA 1: B1 RNA 1
RNA 2: B20 RNA 2 with C31G, G36C, A37G, G38A, A39G, G40A

Each binder was assayed against T1, EsCas13d, nuclease-dead (assay: crRNA (strand 1, pre-loaded); Mg2+; 40 mM Tris-HCl pH 7.5, 150 mM NaCl, 6 mM MgCl2, 1 mM DTT, 0.1% Tween-20, 0.2 mg/ml BSA; 25 C; 10 min per concentration, then washed). Settings: tags: His6-TwinStrep-SUMO cleaved; N-terminal SNAP kept (SNAP-Surface 488); label: 3' end held by stalled T7 RNA polymerase.

Binder	Kd [nM]
B1	7.07 ± 0.35
B2	21.5 ± 2.4
B3	22.5 ± 1.6
B4	12.8 ± 0.8
B5	15.8 ± 1.7
B6	6.2 ± 0.5
B7	41 ± 14
B8	67 ± 11
B9	90 ± 32
B10	7.61 ± 0.27
B11	15.1 ± 0.7
B12	32.9 ± 2.7
B13	35 ± 5
B14	10.1 ± 0.6
B15	43 ± 4
B16	7.1 ± 0.8
B17	12.3 ± 0.9

Binder	Kd [nM]
B18	7 ± 0.6
B19	5.96 ± 0.32
B20	47 ± 5
B21	44 ± 5
B22	6.7 ± 0.7
B23	9.7 ± 0.7
B24	19.3 ± 2.7
B25	24 ± 1.6
B26	12.7 ± 0.5
B27	10.6 ± 1.1
B28	18.9 ± 3.3
B29	4 ± 0.29
B30	6.9 ± 0.4
B31	6.4 ± 0.4
B32	31.8 ± 1.6
B33	20.8 ± 1
B34	73 ± 23
